Positions count from the first letter of the chain named.
T1: human PAC1 receptor (human, UniProt P41586 21-468)
T1 sequence: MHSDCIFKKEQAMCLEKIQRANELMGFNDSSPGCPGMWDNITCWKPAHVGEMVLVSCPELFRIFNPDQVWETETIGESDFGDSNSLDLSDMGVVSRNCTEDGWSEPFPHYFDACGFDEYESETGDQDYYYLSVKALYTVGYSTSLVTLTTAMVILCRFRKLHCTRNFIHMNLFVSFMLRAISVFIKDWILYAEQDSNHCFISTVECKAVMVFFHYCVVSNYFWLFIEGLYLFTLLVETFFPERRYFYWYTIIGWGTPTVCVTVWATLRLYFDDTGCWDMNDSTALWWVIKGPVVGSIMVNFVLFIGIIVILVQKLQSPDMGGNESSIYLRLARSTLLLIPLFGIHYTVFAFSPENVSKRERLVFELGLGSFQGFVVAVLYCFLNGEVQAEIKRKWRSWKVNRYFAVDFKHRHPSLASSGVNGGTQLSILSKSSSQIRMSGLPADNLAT

B1: iPS:392475 (bispecific antibody, human IgG1, kappa, lambda, N297G)
light: DIQLTQSPSFLSASVGDRVTITCRASQSIGRSLHWYQQKPGKAPKLLIKYASQSLSGVPSRFSGSGSGTEFTLTISSLQPEDFATYYCHQSSRLPFTFGPGTKVDIKRTVAAPSVFIFPPSDEQLKSGTASVVCLLNNFYPREAKVQWKVDNALQSGNSQESVTEQDSKDSTYSLESTLTLSKADYEKHKVYACEVTHQGLSSPVTKSFNRGEC
heavy: not shown
chain: QVQLVESGGGVVQPGRSLRLSCAASGFTFSSFGMHWVRQAPGKGLEWVAVISFDGSIKYSVDSVKGRFTISRDNSKNTLFLQMNSLRAEDTAVYYCARDRLNYYESSGYYHYKYYGMAVWGQGTTVTVSSGQPKANPTVTLFPPSSEELQANKATLVCLISDFYPGAVTVAWKADGSPVKAGVETTKPSKQSNNKYAAESYLSLTPEQWKSHRSYSCQVTHEGSTVEKTVAPTECS
B2: iPS:392513 (bispecific antibody, human IgG1, kappa, lambda, N297G)
light: B1 light
heavy: not shown
chain: B1 chain with E105D
B3: iPS:392514 (bispecific antibody, human IgG1, kappa, lambda, N297G)
light: B1 light
heavy: not shown
chain: B1 chain with Q39E, E105D
B4: iPS:392515 (bispecific antibody, human IgG1, kappa, lambda, N297G)
light: B1 light
heavy: not shown
chain: QVQLVESGGGVVQPGRSLRLSCAASGFTFSSFGMHWVRQAPGKGLEWVAVISFDGSIKYSVDSVKGRFTISRDNSKNTLFLQMNSLRAEDTAVYYCARDRLNYYDSSGYYHYKYYGMAVWGQGTTVTVSSASTKGPSVFPLAPSSKSTSGGTAALGCLVKDYFPEPVTVSWNSGALTSGVHTFPAVLQSSGLYSLESVVTVPSSSLGTQTYICNVNHKPSNTKVDKKV
B5: iPS:392516 (bispecific antibody, human IgG1, kappa, lambda, N297G)
light: B1 light
heavy: not shown
chain: B4 chain with Q39E
B6: iPS:392517 (bispecific antibody, human IgG1, kappa, lambda, N297G)
light: B1 light with Q38E
heavy: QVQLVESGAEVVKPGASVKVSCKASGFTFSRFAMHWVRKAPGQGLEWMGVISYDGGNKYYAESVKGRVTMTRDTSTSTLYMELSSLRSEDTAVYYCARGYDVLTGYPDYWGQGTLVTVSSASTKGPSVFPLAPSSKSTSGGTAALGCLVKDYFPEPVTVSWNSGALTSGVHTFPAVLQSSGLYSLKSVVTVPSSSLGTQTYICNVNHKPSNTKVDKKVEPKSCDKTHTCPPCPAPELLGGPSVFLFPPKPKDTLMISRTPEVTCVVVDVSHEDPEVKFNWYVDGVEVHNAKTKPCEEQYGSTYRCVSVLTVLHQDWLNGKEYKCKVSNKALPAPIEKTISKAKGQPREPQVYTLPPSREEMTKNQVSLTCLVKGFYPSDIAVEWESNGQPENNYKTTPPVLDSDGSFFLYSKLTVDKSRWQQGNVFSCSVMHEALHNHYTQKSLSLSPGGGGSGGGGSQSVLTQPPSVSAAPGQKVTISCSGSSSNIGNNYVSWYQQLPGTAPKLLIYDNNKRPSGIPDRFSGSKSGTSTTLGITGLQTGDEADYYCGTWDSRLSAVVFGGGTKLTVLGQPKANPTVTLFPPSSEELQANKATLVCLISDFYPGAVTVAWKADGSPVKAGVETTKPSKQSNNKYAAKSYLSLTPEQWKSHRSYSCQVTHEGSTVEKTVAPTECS
chain: B4 chain
B7: iPS:392518 (bispecific antibody, human IgG1, kappa, lambda, N297G)
light: B1 light with Q38E
heavy: not shown
chain: B4 chain with Q39E
B8: iPS:392519 (bispecific antibody, human IgG1, kappa, lambda, N297G)
light: B1 light
heavy: not shown
chain: B1 chain with Q39E
B9: iPS:392520 (bispecific antibody, human IgG1, kappa, lambda, N297G)
light: B1 light
heavy: not shown
chain: B4 chain with D105E
B10: iPS:392521 (bispecific antibody, human IgG1, kappa, lambda, N297G)
light: B1 light
heavy: not shown
chain: B4 chain with Q39E, D105E
B11: iPS:392522 (bispecific antibody, human IgG1, kappa, lambda, N297G)
light: B1 light with Q38E
heavy: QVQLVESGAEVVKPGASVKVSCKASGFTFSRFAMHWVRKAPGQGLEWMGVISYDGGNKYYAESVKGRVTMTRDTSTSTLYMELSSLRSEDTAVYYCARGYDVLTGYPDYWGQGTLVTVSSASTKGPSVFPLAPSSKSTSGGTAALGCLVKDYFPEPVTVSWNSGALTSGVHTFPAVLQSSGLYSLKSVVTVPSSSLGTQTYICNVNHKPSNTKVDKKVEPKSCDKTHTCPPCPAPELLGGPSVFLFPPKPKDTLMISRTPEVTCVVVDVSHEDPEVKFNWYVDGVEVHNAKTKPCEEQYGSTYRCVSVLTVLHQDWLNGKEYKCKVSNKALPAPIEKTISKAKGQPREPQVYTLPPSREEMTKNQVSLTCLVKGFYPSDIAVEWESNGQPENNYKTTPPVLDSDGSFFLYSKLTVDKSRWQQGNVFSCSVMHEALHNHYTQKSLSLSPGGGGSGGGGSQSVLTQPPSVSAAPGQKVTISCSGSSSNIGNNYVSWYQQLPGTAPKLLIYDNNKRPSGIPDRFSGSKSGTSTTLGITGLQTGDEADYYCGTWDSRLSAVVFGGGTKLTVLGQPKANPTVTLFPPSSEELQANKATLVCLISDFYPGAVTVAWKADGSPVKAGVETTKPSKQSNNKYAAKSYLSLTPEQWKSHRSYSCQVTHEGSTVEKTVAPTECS
chain: B4 chain with D105E
B12: iPS:392523 (bispecific antibody, human IgG1, kappa, lambda, N297G)
light: B1 light with Q38E
heavy: not shown
chain: B4 chain with Q39E, D105E
B13: iPS:392524 (bispecific antibody, human IgG1, kappa, lambda, N297G)
light: QSVLTQPPSVSAAPGQKVTISCSGSSSNIGNNYVSWYQQLPGTAPKLLIYDNNKRPSGIPDRFSGSKSGTSTTLGITGLQTGDEADYYCGTWDSRLSAVVFGGGTKLTVLGQPKANPTVTLFPPSSEELQANKATLVCLISDFYPGAVTVAWKADGSPVKAGVETTKPSKQSNNKYAAKSYLSLTPEQWKSHRSYSCQVTHEGSTVEKTVAPTECS
heavy: not shown
chain: QVQLVESGAEVVKPGASVKVSCKASGFTFSRFAMHWVRQAPGQGLEWMGVISYDGGNKYYAESVKGRVTMTRDTSTSTLYMELSSLRSEDTAVYYCARGYDVLTGYPDYWGQGTLVTVSSTVAAPSVFIFPPSDEQLKSGTASVVCLLNNFYPREAKVQWKVDNALQSGNSQESVTEQDSKDSTYSLKSTLTLSKADYEKHKVYACEVTHQGLSSPVTKSFNRGEC
B14: iPS:392525 (bispecific antibody, human IgG1, kappa, lambda, N297G)
light: B13 light
heavy: not shown
chain: B13 chain with Q39K
B15: iPS:392526 (bispecific antibody, human IgG1, kappa, lambda, N297G)
light: B13 light
heavy: not shown
chain: B13 chain
B16: iPS:392527 (bispecific antibody, human IgG1, kappa, lambda, N297G)
light: B13 light
heavy: not shown
chain: B13 chain with Q39K
B17: iPS:392528 (bispecific antibody, human IgG1, kappa, lambda, N297G)
light: B13 light
heavy: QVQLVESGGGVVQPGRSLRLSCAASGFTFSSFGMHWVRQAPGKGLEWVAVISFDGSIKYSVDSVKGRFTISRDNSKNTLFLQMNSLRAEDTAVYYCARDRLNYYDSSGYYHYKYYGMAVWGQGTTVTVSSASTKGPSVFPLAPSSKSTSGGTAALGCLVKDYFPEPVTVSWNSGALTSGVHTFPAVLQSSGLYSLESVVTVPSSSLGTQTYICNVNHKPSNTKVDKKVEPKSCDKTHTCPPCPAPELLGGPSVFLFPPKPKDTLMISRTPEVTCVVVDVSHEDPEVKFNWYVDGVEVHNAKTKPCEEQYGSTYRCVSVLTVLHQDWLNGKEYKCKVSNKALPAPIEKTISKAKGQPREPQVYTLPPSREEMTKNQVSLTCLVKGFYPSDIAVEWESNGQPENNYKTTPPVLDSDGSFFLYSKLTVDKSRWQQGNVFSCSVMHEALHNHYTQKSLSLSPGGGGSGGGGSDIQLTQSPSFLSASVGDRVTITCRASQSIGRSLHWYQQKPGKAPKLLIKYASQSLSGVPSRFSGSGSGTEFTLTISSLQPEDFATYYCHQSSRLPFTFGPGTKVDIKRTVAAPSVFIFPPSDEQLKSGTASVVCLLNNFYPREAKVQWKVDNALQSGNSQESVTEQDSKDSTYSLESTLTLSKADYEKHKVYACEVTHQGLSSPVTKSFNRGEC
chain: QVQLVESGAEVVKPGASVKVSCKASGFTFSRFAMHWVRQAPGQGLEWMGVISYDGGNKYYAESVKGRVTMTRDTSTSTLYMELSSLRSEDTAVYYCARGYDVLTGYPDYWGQGTLVTVSSASTKGPSVFPLAPSSKSTSGGTAALGCLVKDYFPEPVTVSWNSGALTSGVHTFPAVLQSSGLYSLKSVVTVPSSSLGTQTYICNVNHKPSNTKVDKKV
B18: iPS:392529 (bispecific antibody, human IgG1, kappa, lambda, N297G)
light: B13 light
heavy: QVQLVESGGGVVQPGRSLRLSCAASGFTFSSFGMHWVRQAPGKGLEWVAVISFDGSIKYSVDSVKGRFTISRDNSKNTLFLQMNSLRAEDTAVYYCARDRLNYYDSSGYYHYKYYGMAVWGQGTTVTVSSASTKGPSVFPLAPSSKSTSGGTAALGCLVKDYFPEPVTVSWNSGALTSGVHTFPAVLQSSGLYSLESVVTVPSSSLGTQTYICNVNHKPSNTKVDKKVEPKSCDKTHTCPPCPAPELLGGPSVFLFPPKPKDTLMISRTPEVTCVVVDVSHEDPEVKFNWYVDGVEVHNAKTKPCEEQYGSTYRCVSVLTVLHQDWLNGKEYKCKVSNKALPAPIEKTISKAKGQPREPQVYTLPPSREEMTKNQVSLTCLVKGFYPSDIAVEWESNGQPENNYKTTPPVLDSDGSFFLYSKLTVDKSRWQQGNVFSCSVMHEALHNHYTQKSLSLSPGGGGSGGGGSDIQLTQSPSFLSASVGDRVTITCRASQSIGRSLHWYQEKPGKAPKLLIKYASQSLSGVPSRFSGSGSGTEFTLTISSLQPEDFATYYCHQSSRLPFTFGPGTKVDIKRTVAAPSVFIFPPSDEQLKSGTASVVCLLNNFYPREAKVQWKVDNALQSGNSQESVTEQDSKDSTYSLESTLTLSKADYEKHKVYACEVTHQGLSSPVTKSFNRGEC
chain: B17 chain with Q39K
B19: iPS:386760 (bispecific antibody, human IgG1, kappa, N297G)
light: B1 light with E176S
heavy: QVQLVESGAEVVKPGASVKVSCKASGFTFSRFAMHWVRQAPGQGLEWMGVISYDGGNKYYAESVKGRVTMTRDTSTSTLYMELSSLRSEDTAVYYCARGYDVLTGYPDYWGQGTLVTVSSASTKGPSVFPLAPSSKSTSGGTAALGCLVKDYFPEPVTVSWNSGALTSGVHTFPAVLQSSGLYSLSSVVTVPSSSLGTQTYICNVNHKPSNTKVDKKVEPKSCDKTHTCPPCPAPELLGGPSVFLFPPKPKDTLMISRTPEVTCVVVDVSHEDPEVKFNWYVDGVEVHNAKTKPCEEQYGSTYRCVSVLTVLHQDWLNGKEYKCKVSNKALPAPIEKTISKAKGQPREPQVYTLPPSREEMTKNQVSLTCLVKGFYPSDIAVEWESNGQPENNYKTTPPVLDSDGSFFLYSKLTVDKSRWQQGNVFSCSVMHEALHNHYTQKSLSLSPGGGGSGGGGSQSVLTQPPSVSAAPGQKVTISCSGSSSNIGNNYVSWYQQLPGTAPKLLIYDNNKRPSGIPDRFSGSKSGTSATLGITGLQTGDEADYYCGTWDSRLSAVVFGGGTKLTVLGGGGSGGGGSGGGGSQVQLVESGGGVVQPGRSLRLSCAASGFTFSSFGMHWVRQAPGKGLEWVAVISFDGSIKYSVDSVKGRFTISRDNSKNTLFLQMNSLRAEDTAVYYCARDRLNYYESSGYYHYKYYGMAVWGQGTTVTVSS
B20: iPS:386762 (bispecific antibody, human IgG1, kappa, N297G)
light: B1 light with E176S
heavy: not shown
B21: iPS:386764 (bispecific antibody, human IgG1, kappa, N297G)
light: B1 light with E176S
heavy: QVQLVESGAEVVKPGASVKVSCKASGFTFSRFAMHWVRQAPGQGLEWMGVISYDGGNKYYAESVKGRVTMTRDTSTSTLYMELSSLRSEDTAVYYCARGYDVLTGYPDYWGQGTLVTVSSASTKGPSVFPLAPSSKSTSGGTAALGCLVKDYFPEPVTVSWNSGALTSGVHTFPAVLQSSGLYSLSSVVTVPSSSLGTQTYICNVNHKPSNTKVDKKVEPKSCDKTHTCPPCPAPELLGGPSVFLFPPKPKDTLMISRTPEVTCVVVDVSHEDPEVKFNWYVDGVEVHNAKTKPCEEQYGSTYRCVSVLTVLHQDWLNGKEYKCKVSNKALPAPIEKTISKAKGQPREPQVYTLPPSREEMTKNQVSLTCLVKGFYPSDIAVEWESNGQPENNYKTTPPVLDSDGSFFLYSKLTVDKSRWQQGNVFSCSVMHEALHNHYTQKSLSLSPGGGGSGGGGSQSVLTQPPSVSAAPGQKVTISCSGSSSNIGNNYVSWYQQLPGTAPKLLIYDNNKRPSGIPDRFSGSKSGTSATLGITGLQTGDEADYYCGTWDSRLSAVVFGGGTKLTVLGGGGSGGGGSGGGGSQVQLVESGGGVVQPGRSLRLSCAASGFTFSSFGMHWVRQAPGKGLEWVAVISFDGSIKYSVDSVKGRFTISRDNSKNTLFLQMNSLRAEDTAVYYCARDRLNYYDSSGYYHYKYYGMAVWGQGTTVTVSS
B22: iPS:386715 (bispecific antibody, human IgG1, lambda, N297G)
light: B13 light with K179S
heavy: not shown
B23: iPS:386717 (bispecific antibody, human IgG1, lambda, N297G)
light: B13 light with K179S
heavy: not shown
B24: iPS:386719 (bispecific antibody, human IgG1, lambda, N297G)
light: B13 light with T72A, K179S
heavy: not shown
B25: iPS:386721 (bispecific antibody, human IgG1, lambda, N297G)
light: B13 light with T72A, G75A, K179S
heavy: not shown
B26: iPS:386723 (bispecific antibody, human IgG1, lambda, N297G)
light: B13 light with T72A, K179S
heavy: not shown

molecular target: T2, human CGRP receptor (human, UniProt Q16602 23-461; O60894 27-148); experiment: cell-based or functional assay
T2 sequence (Q16602 23-461 limits assumed, chain 1 of 2): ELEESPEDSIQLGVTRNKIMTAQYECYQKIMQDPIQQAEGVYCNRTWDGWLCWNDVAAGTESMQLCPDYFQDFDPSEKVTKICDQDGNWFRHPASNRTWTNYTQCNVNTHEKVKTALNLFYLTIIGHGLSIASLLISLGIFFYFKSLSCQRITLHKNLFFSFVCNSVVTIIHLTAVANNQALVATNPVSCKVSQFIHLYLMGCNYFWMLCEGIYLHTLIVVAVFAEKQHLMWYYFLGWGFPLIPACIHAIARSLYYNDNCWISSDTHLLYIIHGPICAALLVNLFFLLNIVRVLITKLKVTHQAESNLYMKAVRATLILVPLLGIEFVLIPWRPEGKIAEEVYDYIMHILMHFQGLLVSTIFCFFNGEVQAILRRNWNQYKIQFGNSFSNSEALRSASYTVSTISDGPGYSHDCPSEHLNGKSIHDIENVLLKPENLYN
T2 sequence (O60894 27-148 limits assumed, chain 2 of 2): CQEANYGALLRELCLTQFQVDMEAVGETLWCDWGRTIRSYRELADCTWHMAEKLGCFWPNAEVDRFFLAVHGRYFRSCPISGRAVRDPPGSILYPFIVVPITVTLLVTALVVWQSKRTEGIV

Binder	Human CGRP Receptor IC50 [nM]	Human CGRP Receptor IC50 (nM), lot #1 [nM]	Human CGRP Receptor IC50 (nM), lot #2 [nM]
B1	20.4	–	–
B2	60.2	–	–
B3	54	–	–
B4	12.9	–	–
B5	27.9	–	–
B6	–	10.9	11.5
B7	17.8	–	–
B8	81.3	–	–
B9	10.5	–	–
B10	18.8	–	–
B11	–	8.8	7.58
B12	20.4	–	–
B13	0.86	–	–
B14	1.22	–	–
B15	0.71	–	–
B16	0.42	–	–
B17	0.55	–	–
B18	0.56	–	–

molecular target: T1, human PAC1 receptor; experiment: cell-based or functional assay

Binder	Human PAC1 Receptor IC50 [nM]	Human PAC1 Receptor IC50 (nM), lot #1 [nM]	Human PAC1 Receptor IC50 (nM), lot #2 [nM]
B1	4.78	–	–
B2	2.7	–	–
B3	4.69	–	–
B4	2.66	–	–
B5	9.3	–	–
B6	–	2.48	7.75
B7	3.4	–	–
B8	6.87	–	–
B9	6.28	–	–
B10	6.88	–	–
B11	–	9.32	3.29
B12	5.03	–	–
B13	81.2	–	–
B14	37.1	–	–
B15	116	–	–
B16	16.4	–	–
B17	> 1000	–	–
B18	> 1000	–	–

molecular target: T2, human CGRP receptor; experiment: cell-based or functional assay; remark: another data set of the same source

Binder	Human CGRP Receptor IC50 [nM]
B19	2.11
B20	2.8
B21	2.61
B22	0.43
B23	0.33
B24	0.41
B25	0.22
B26	0.27

molecular target: T1, human PAC1 receptor; experiment: cell-based or functional assay; remark: another data set of the same source

Binder	Human PAC1 Receptor IC50 [nM]
B19	4.67
B20	3.55
B21	11.9
B22	689
B23	580
B24	940
B25	197
B26	248
